According to patent US9969998B2, “Compositions of adenosine deaminase-2 (ADA2), variants thereof and methods of using same” (Halozyme, Inc., priority 2014, dated 2018):
Where “and” joins values, the source holds several entries; their conditions need not be identical. Identical values can stand only once.

B1: ADA2: wild-type human adenosine deaminase 2, mature form SEQ ID NO:5, homodimer (protein, listed as Homo sapiens)
chain: IDETRAHLLLKEKMMRLGGRLVLNTKEELANERLMTLKIAEMKEAMRTLIFPPSMHFFQAKHLIERSQVFNILRMMPKGAALHLHDIGIVTMDWLVRNVTYRPHCHICFTPRGIMQFRFAHPTPRPSEKCSKWILLEDYRKRVQNVTEFDDSLLRNFTLVTQHPEVIYTNQNVVWSKFETIFFTISGLIHYAPVFRDYVFRSMQEFYEDNVLYMEIRARLLPVYELSGEHHDEEWSVKTYQEVAQKFVETHPEFIGIKIIYSDHRSKDVAVIAESIRMAMGLRIKFPTVVAGFDLVGHEDTGHSLHDYKEALMIPAKDGVKLPYFFHAGETDWQGTSIDRNILDALMLNTTRIGHGFALSKHPAVRTYSWKKDIPIEVCPISNQVLKLVSDLRNHPVATLMATGHPMVISSDDPAMFGAKGLSYDFYEVFMGIGGMKADLRTLKQLAMNSIKYSTLLESEKNTFMEIWKKRWDKFIADVATK
modifications: ADA2 mature protein
B2: K374D: ADA2 variant SEQ ID NO:20 (protein)
chain: IDETRAHLLLKEKMMRLGGRLVLNTKEELANERLMTLKIAEMKEAMRTLIFPPSMHFFQAKHLIERSQVFNILRMMPKGAALHLHDIGIVTMDWLVRNVTYRPHCHICFTPRGIMQFRFAHPTPRPSEKCSKWILLEDYRKRVQNVTEFDDSLLRNFTLVTQHPEVIYTNQNVVWSKFETIFFTISGLIHYAPVFRDYVFRSMQEFYEDNVLYMEIRARLLPVYELSGEHHDEEWSVKTYQEVAQKFVETHPEFIGIKIIYSDHRSKDVAVIAESIRMAMGLRIKFPTVVAGFDLVGHEDTGHSLHDYKEALMIPAKDGVKLPYFFHAGETDWQGTSIDRNILDALMLNTTRIGHGFALSKHPAVRTYSWDKDIPIEVCPISNQVLKLVSDLRNHPVATLMATGHPMVISSDDPAMFGAKGLSYDFYEVFMGIGGMKADLRTLKQLAMNSIKYSTLLESEKNTFMEIWKKRWDKFIADVATK
modifications: human ADA2 K371D, mature numbering

Key:
[1] = Thermal stability, melting temperature (Tm) by differential scanning fluorimetry; type: physicochemical; conditions: compared to ADA1
Source text: Proteins differ in their degrees of thermal stability (or thermostability). In particular, proteins with biological activities, such as enzymes, can have different optimal temperatures. Thermostability, the quality of a protein to resist irreversible change in its chemical or physical structure at a relatively high temperature, can be indicative of overall stability of a protein. Increased temperature usually induces protein unfolding, and disruption of secondary, tertiary and quaternary structure of proteins, leading to destabilization of protein. Thermostability of a protein, such as any ADA2 polypeptide provided herein, can be determined by measuring the changes in enzymatic activity and/or other physical properties, before and after incubation in relatively high or low temperatures.
The stability of a protein can be determined by measuring the activity of the protein as a function of time. The melting temperature (Tm) of the protein can be used as a marker of solution stability and in vivo stability for proteins. The unfolding temperature of a particular protein refers to that temperature at which the protein loses its secondary structure and typically, its activity and can be determined using methods known to those of skill in the art and described herein, such as differential scanning calorimetry […]. […] In other examples, the thermal stability can be measured biochemically. […]

[2] = system: adenosine in tumor extracellular matrix; test: Adenosine in MH194+PSC4 tumor extracellular matrix (microdialysis, LC/MS); type: in vivo, mice; conditions: for Adenosine concentration in ECM, Mean: n = 8; for Adenosine concentration in ECM, individual tumors: single animal values; for adenosine concentration in tumor ECM: 0.03 mg/kg
Method: To assess the effects of PEGADA2 on adenosine in tumor extracellular matrix, mice bearing peritibial MH194+PSC4 tumors received vehicle, the polypeptide whose sequence is set forth in SEQ ID NO:20, which contains the amino acid replacement K374D (Zavialov numbering; K371D mature numbering), at 0.03 mg/kg, or the polypeptide whose sequence is set forth in SEQ ID NO: 273, which contains the amino acid replacements R222Q/S265N (Zavialov numbering; R219Q/S262 mature numbering), at 0.03 mg/kg, 24 or 48 hours prior to microdialysis. Each of the polypeptides were PEGylated as described above in Examples 8 and 22). The mice were anesthetized using isofluorane, and a heating pad was used to maintain body temperature. A small incision was made on the tumor. A microdialysis probe with 55,000 Da molecular weight cut-off (CMA, Stockholm, Sweden) was inserted into the tumor, via a guided cannula. The length of the microdialysis probe used in this study was 10 mm. Once the probe was in position, the cannula was withdrawn leaving the probe completely embedded in the tumor tissue. Dulbecco's phosphate buffered saline (DPBS; Thermo Fisher Scientific) with ADA inhibitors (Pentostatin and 5-iodotubercindin) was perfused through the probe at a flow rate of 1 μl/min for 30 minutes. Then the samples were collected at a flow rate of 0.5 μl/min for 60 minutes. Microdialysis perfusates were analyzed by Liquid chromatography-mass spectrometry (LC/MS) at MicroConstants (9050 Camino Santa Fe, San Diego, Calif. 92121).

Molecule | thermal stability [1] | Adenosine concentration in ECM, Mean ([2]; 24 hours after 0.03 mg/kg) [µM] | Adenosine concentration in ECM, individual tumors ([2]; 24 hours after 0.03 mg/kg) | adenosine concentration in tumor ECM ([2]; 24 hours post treatment) [µM] | Adenosine concentration in ECM, Mean ([2]; 48 hours after 0.03 mg/kg) [µM] | Adenosine concentration in ECM, individual tumors ([2]; 48 hours after 0.03 mg/kg) | adenosine concentration in tumor ECM ([2]; 48 hours post treatment) [µM]
B1 | higher thermal stability |  |  |  |  |  | 
B2 |  | 19.54 | 49.02 µM and 12.72 µM and 29.64 µM and 13.58 µM and 12.54 µM and 7.48 µM and 2.04 µM and 29.30 µM | 19.5 | 11.06 | 23.13 µM and 0.07 µM and 6.47 µM and 2.77 µM and 20.92 µM and 1.64 µM and 27.54 µM and 5.95 µM | 11
